This is an account of results in paper PMC12004702, “Characterization of a rhodopsin-phosphodiesterase from Choanoeca flexa to be combined with rhodopsin-cyclases for bidirectional optogenetic cGMP control” (The Journal of Biological Chemistry, 2025).

Substrate in this data set: [H][C@@]12COP(=O)(O)O[C@@]1([H])[C@@H](O)[C@H](n1cnc3c(=O)[nH]c(N)nc31)O2
Description: HPLC initial-rate assay, Michaelis-Menten fit, membrane fraction. Format: biochemical, Choanoeca flexa. The note with it: 5 mM MgCl2, 20 mM Hepes, 100 mM NaCl, 5 mM DTT, 5% glycerol.

Setting [1] is: light-adapted state (470 nm, 30 μW/mm^2).

B1: CfRhPDE1 (Choanoeca flexa) (protein)
chain: MSKAMTMREEAALELKRKGKVKNVAIATTSEVQKQGFFMMAVWIATVSILWLFSNPEASEAVFEKHGQLRVMYGATSVAFAFATALDVLAYVNAVSDEKRVLSGVLAYVDGAACLSYAAMASLPLYFILDSHNGNPIWLMRYAEWLITCPTLLYWCGLATRGERGAVADIATGDAMLLAGGALSSILPGWPSYFVFMGSVAAFVYVMTHMWGLFSKAMQPDFSPAPPLPRTALNLMRWEIVLSWTCFPMIEYSRRYFGLDYQTGEALNSIIDYAAKVGLAMIMVNCNLEQINAIKVEQMQSAMSGMVKVMRKTNARVELDGMDDDVKGWLLNEYAGDDGEDEVKVSSKSKRNQKSINPEEISASALFSWDFCSLDKSEEDLVGICIRVFRELKMIEVFDLDESKLRRFILGVRSRYNKNPFHNWKHAVMVLHTCYLFITQVAAEFCTDLEVLALLFAALCHDCDHNGVNNAFHINSRSDLALLYNDQSVLENHHCYSGFDVLYDKGNNFLDVLSEGDFKRFRSLVIDCILGTDMAHHASKLGKLEEINRLGGFSNLAENDEQRAFVMVTLLHTSDLYNPIKPFHITKKWANRLQREFNQQVEVESQMGLPSLPFMKGQGELALAKGEVGFITFVIRPWYVQLTNAFPKIDFLMDNIDTNLDMWKSIVESHE
notes: full-length, N-terminal Venus tag kept, no other change from WT; codon-optimized; membranes of ND7/23 cells; modelled as dimer
For orientation: Km means the substrate concentration at which the rate is half of its maximum. Usually kcat stands for the maximal rate divided by the concentration of active sites. On to B1, for which, under “darkness (dark-adapted state)”, the Km amounted to 4.4 ± 0.6 µM and the kcat came to 2.0 ± 0.1 s⁻¹. Under setting [1], the Km is 1.9 ± 0.1 µM and the kcat was 4.7 ± 0.1 s⁻¹.
